Broadly, the Kd is a measure of binding affinity in units of concentration.

Data on two molecules can be found in publication PMC4386032, “A Dynamin-Actin Interaction Is Required for Vesicle Scission during Endocytosis in Yeast” (Current Biology, 2015).

The target in series [1] is rabbit muscle actin (F-actin) (rabbit, UniProt P68135 1-377). The series can be described thus: co-sedimentation; high-speed F-actin pelleting: purified Vps1 (supernatant of a 90,000 x g pre-spin) mixed with pre-polymerized yeast or rabbit muscle F-actin (10% KME pH 8), 15 min, spun 90,000 x g; supernatant and pellet by SDS-PAGE, densitometry; KD from a single site binding curve over a range of Vps1 concentrations; 1.5 uM Vps1 with 3 uM F-actin in Figure 1A. Particulars: both partners purified.

Series [2] deals with the molecule itself. The series can be described thus: negative-stain electron microscopy; purified Vps1 imaged directly, adsorbed on carbon-coated grids, negative staining with uranyl formate; oligomeric rings.

B1: Vps1 (yeast dynamin), wild type, recombinant His tag fusion (natural protein, yeast (budding yeast), UniProt P21576 1-704, looked up)
chain: MDEHLISTINKLQDALAPLGGGSQSPIDLPQITVVGSQSSGKSSVLENIVGRDFLPRGTGIVTRRPLVLQLINRRPKKSEHAKVNQTANELIDLNINDDDKKKDESGKHQNEGQSEDNKEEWGEFLHLPGKKFYNFDEIRKEIVKETDKVTGANSGISSVPINLRIYSPHVLTLTLVDLPGLTKVPVGDQPPDIERQIKDMLLKYISKPNAIILSVNAANTDLANSDGLKLAREVDPEGTRTIGVLTKVDLMDQGTDVIDILAGRVIPLRYGYIPVINRGQKDIEHKKTIREALENERKFFENHPSYSSKAHYCGTPYLAKKLNSILLHHIRQTLPEIKAKIEATLKKYQNELINLGPETMDSASSVVLSMITDFSNEYAGILDGEAKELSSQELSGGARISYVFHETFKNGVDSLDPFDQIKDSDIRTIMYNSSGSAPSLFVGTEAFEVLVKQQIRRFEEPSLRLVTLVFDELVRMLKQIISQPKYSRYPALREAISNQFIQFLKDATIPTNEFVVDIIKAEQTYINTAHPDLLKGSQAMVMVEEKLHPRQVAVDPKTGKPLPTQPSSSKAPVMEEKSGFFGGFFSTKNKKKLAALESPPPVLKATGQMTERETMETEVIKLLISSYFSIVKRTIADIIPKALMLKLIVKSKTDIQKVLLEKLYGKQDIEELTKENDITIQRRKECKKMVEILRNASQIVSSV
notes: Vps1, dynamin-like protein of budding yeast; wild-type VPS1 expressed as a His tag fusion; Template plasmids pKA677 and pKA850 are named; Forms oligomeric rings by EM; also called wild-type Vps1; yeast dynamin Vps1; source: E. coli (C43), purified
With B1, the Kd in series [1] was 920 ± 310 nM. The binding result in series [2] is “binds”.

B2: Vps1 RR457,458EE, recombinant His tag fusion (natural protein, yeast (budding yeast), UniProt P21576 1-704, looked up)
chain: MDEHLISTINKLQDALAPLGGGSQSPIDLPQITVVGSQSSGKSSVLENIVGRDFLPRGTGIVTRRPLVLQLINRRPKKSEHAKVNQTANELIDLNINDDDKKKDESGKHQNEGQSEDNKEEWGEFLHLPGKKFYNFDEIRKEIVKETDKVTGANSGISSVPINLRIYSPHVLTLTLVDLPGLTKVPVGDQPPDIERQIKDMLLKYISKPNAIILSVNAANTDLANSDGLKLAREVDPEGTRTIGVLTKVDLMDQGTDVIDILAGRVIPLRYGYIPVINRGQKDIEHKKTIREALENERKFFENHPSYSSKAHYCGTPYLAKKLNSILLHHIRQTLPEIKAKIEATLKKYQNELINLGPETMDSASSVVLSMITDFSNEYAGILDGEAKELSSQELSGGARISYVFHETFKNGVDSLDPFDQIKDSDIRTIMYNSSGSAPSLFVGTEAFEVLVKQQIEEFEEPSLRLVTLVFDELVRMLKQIISQPKYSRYPALREAISNQFIQFLKDATIPTNEFVVDIIKAEQTYINTAHPDLLKGSQAMVMVEEKLHPRQVAVDPKTGKPLPTQPSSSKAPVMEEKSGFFGGFFSTKNKKKLAALESPPPVLKATGQMTERETMETEVIKLLISSYFSIVKRTIADIIPKALMLKLIVKSKTDIQKVLLEKLYGKQDIEELTKENDITIQRRKECKKMVEILRNASQIVSSV
notes: Vps1 of budding yeast with the charge-switch mutations R457E and R458E in a helix of the stalk domain; Made by site-directed mutagenesis of template plasmids pKA677 and pKA850; also called RR-EE; Vps1 RR-EE; source: E. coli (C43), purified
On to B2, for which, in series [2], the binding result is “binds”.
